Measured values: the RNAGym collection of RNA variant scans (doi:10.1073/pnas.2313332121)

B1: TPR t1 (parent)
chain: GACCAAUCUGCCCUCAGAGCUCGAGAACAUCUUCGGAUGCAGAGGAGGCAGGCUUCGGUGGCGCGAUAGCGCCAACGUCCUCAACCUCCAAUGCAUCCCACCACAUGAUGAUGCCUGAAGAGCCUUGGUUUUUUG

Variants of: B1
Test: polymerase ribozyme fitness, log enrichment relative to wild type (log ratio); higher = more active; in vitro selection for triplet polymerase activity
Method in brief: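 Libraries of mutants in each subunit of a heterodimeric triplet polymerase ribozyme were generated by PCR and transcribed. In triplicate, each went through one in vitro selection round: annealing with biotinylated primer, partner subunit and triplets; frozen incubation at −7 °C; gel excision of extended constructs; streptavidin-bead capture; RT-PCR. Fitness, taken from Illumina sequencing of input and output libraries, is the logarithm of a genotype's enrichment over wild-type enrichment, averaged across replicates with inverse-variance weights. The logarithm is base 2, and genotypes needed ≥10 input reads and ≥1 read per output to be kept.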

| Variant | polymerase ribozyme fitness (log ratio) |
| --- | --- |
| GUCCAAUCUGCCCUCAGAUCUCGAGAACAUCUUCGGAUGCAGAGGAGGCAGGCUUCGGUGGCGCGAUAGUGCCAACGUCCUCAACCUCCAAUGCAUCCCACCACAUGAUGAUGCCUGAAGGGCCUUGGUUUUUUG | -4.27 |
| GUCCAAUCUGCCCUCAGAGCUCGAGAACAUCUUCGGAUGCAGAGGAGGCAGGCUUCGGUGGCGUGAUAGCGCCAACGUCCUCAACCUCCAAUGCAUCCCACCACAUGAUGAUGCCUGAAGAGCUUUGGUUUUUUG | -1.49 |
| GUCCAAUCUGCCCUCAGAGCUCGAGAACAUCUUCGGAUGCAGAGGAGGUAGGCUUCGGUGGCGCGAUAGCGCCAACGUCCUCAACCUCCAAUGCAUCCCACCACAUGAUGAUCCCUGAAGAGCCUUGGUUUUUUG | -5.26 |
| GUCCAAUCUGCCCUCAGAGCUCGAGAACAUCUUCGGAUGCAGAGGAGGCAGGCUUCGGUGGCGCGAUAGCGCCAAUGUCCUCAACCUCCAAUGCAUCCCACCACAUGAUGAUGCCUGAAGAGCCUUGGUUUUUUG | -1.64 |
| GUCCAAUCUGCCCUCAGAGCUCGAGAACAUCUUCGCAUGCAGAGGAGGCAGGCUUCGGUGGCGCGAUAGCGCCCACGUCCUCAACCUCCAAUGCAUCCCACCACAUGAUGAUGCCUGAAGAGCCUUGGUUUUUUG | -3.04 |
| GUCCAAUCUGCCCUCAGAGCUCGAGAACAUCUUCGGAUGCAGAGGAGGCAGGCUUCGGUGGCGCGAUAGCGCCAACGUCCUCAACCUCCAAUGCAUCCCACCACAUGAUGAUGCCUGAAGAGACUUGGUUUUUUG | -1.63 |
| GUCCAAUCUGCCCUCAGAGCUCGAGAACAUCUUCGGAUGCAGAGGAGGCAGGGUUCGGUGGCGCGAUAGCGCCAAUGUCCUCAACCUCCAAUGCAUCCCACCACAUGAUGAUGCCUGAAGAGCCGUGGUUUUUUG | -4.01 |
| GUCCAAUCUGCCCUCAGAGCUCGAGAACAUCUUCGGAUGUAGAGGAGGCAGGCUUCGGUGGCGCGAUAGCGCCAACGUCCUCAACCUCCAAUGCAUCCCACCACAUGAUGAUGCAUGAAGUGCCUUGGUUUUUUG | 0.0194 |
| GUCCAAUCUGCCCUCAGAGCUCGAGAACAUCUUCGGAUGCAGAGGAGGAAGGCUUCGGUGGCGCGAUAGCACCAACGUCCUAAACCUCCAAUGCAUCCCACCACAUGAUGAUGCCUGAAUAGCCUUGGUUUUUUG | -3.9 |
| GUCCAAUCUGCCCUCAGAGCUCGAGAACAUCUUCGGAUGCAGAGGAGGCAGGCUUCGGUGGCGCGAUAGCGUCAACGUCCUCAACCUCCAAUGCAUCCCAGCACAUGAUGAUGCCUGAAGAGCAUUGGUUUUUUG | -2.06 |
| GUCCAAUCUGCCCUCAGAGCUCGAGAACAUCUUCGGAUGCAGAGGAGGCAGGCUUCGGUGGCGCGAUAGCGCCAACGUCCUCAACCUACAAUGCAUCCCACCACAUGAUGAUGCCUGAAGUGCCUUGGUUUUUUG | -0.332 |
| GUCCAAUCUGCCCUAAGAGCUCGAGAACAUCUUCGGAUGCAGAGGAGGCAGGCUUCGGUGGCGCGAUAGCGCCAACGUCCUCAACCUCCAAUGCAUCCCACCACAUGAUGAUGCCUGAAGAGCCUUGGUUUUUUG | -4.12 |
| GUCCAAUCUGCCCUCAGAGCUCGAGAACAUCUUCGGAUGCAGAGGAGGCAGGCUUCGGUGGCGCGAUAGCGCCAACGUCCUCAACCUCAAAUGCAUCCCACCACAUGAUGAUGCAUGAAGAGCCUUGGUUUUUUG | -3.43 |
| GUCCAAUCUGCCCUCAGAGCUCGAGAACAUCUUCGGAUGCAGAGGAGGCAGGCUUCGGUGGCGCGAUAGUGCCAACGUCCUCAACCUACAAUGCAUCCCACCACAUGAUGAUGCCUGAAGAGCCUUGGUUUUUUG | -3.44 |
| GUCCAAUCUGCUCUCAGAGCUCGAGAACAUCUUCGGAUGCAGAGGAGGCAGGCUUCGGUGGCGCGAUAGCGCCAACGUCCUCAACCUCCAAUGCAUCCCACCACAUGAUGAUGCCUGAAGAGCCUUGGUUUUUUG | -2.36 |
| GUCCAAUCUGCCCUCAGAGCUCGAGAACAUCUUCGGAUGCAGAGGAGGCAGGCUUCGGUGGCGCGAUAGCGCAAACGUCCUCAACCUCCAAUGCAUCCCACCACAUGAUGAUGCCUGAAGAGCCUUGGUAUUGUG | -2.47 |
| GUCCAAUCUGCCCUCAGAGCUCGAGAACAUCUUCGGAUGCAGAGGAGGCAGGCUUCGGUGGCGCGAUAGUGCCAACGUCCUCAACCUCCAAUGCAUCCCACCACAUGAUGAUGCCUGAAGAGCCUUGCUUUUUUG | -2.25 |
| GUCCAAUCUGCCCUCAGAGCUCGAGAACAUCUUCGGAUGCAGAGGAGGCAGGCUUAGGUGGCACGAUAGCGCCAACGUCCUCAACCUCCAAUGCAUCCCACCAAAUGAUGAAGCCUGAAGAGCCUUGGUUUUUUG | -5.33 |
| GUCCAAUCUGCUCUCAGAGCUCGAGAACAUCUUCGGAUGCAGAGGAGGCAGGCUUCGGUGGCGCGAUAGCGCCAACGCCCUCAACCGCCAAUGCAUCCCACCACAUGAUGAGGCCUGAAGAGCCUUGGUUUUUUG | -3.07 |
| GUCCAAUCUUCCCUGAGAGCUCGAGAACAUCUUCGGAUGCAGAGGAGGCAGGCUUCGGUGGCGCGAUAGCGCCAACGUCCUCAACCUCCAAUGCAUCCCACCACAAGAUGAUGCCUGAAGAGCCUUGGUUUUUUG | -2.38 |
| GUCCAAUCUGCCCUCAGAGCUCGAGAACAUCUUCGGAUGAAGAGGAGGCAGGCUUCGGUGUCGCGAUAGCGCAAACGUCCUCAACCUCCAAAGCAUCCCACCAUAUGAUGAUGCCUGAAGAGCCUUGGUUUUUUG | -5.16 |
